Results taken from the DeepSol protein solubility set.

Assay: soluble on expression in E. coli; label from the status in PepcDB or PDB records

Sequence	soluble on expression in E. coli
GPLGSPRYELGEELRDKIKQEPSFSNMVSAKKFYNKAIKDFTAPKEGAEVVSVKTHIMRPIDFMLMGLREEFNLYSEDGAHLSAPGTIRLLREKNLLPEEQIARIESVYNQAMSKRFELHAEHKKEHDEMPYSDAKAMLDEVAKIRELGVQRVTRIENLENAKKLWDNANSMLEKGNISGYLKAANELHKFMKEKNLKEDDLRPELSDKTISPKGYAILQSLWGAASDYSRAAATLTESTVEPGLVSAVNKMSAFFMDCKLSPNERATPDPDFKVGKSKILVGIMQFIKDVADPTSKIWMHNTKALMNHKIAAIQKLERSNNVNDETLESVLSSKGENLSEYLSYKYATKDEGREHRYTASTE	soluble
GQNHHEVVKFMDVYQRSYCHPIETLVDIFQEYPDEIEYIFKPSCVPLMRCGGCCNDEGLECVPTEESNITMQIMRIKPHQGQHIGEMSFLQHNKCECRPKKD	soluble
GRGSEHLTIGFKVENAHDRILKTIKTHKLKNYIKESVNFLNSGLTKTNYLGSSNDNIELVDFQNIMFYGDAEVGDNQQPFTFILDTGSANLWVPSVKCTTAGCLTKHLYDSSKSRTYEKDGTKVEMNYVSGTVSGFFSKDLVTVGNLSLPYKFIEVIDTNGFEPTYTASTFDGILGLGWKDLSIGSVDPIVVELKNQNKIENALFTFYLPVHDKHTGFLTIGGIEERFYEGPLTYEKLNHDLYWQITLDAHVGNIMLEKANCIVDSGTSAITVPTDFLNKMLQNLDVIKVPFLPFYVTLCNNSKLPTFEFTSENGKYTLEPEYYLQHIEDVGPGLCMLNIIGLDFPVPTFILGDPFMRKYFTVFDYDNHSVGIALAKKNL	soluble
GRRDNLIVGLDIGTTKICAIVGNVTEDGIDIVGIGTSPSRGMRKGVVINIESTVESIKKAVSEAELMAGCDIRSVYAGIAGGHIKGINSQGVIAIKNREVSSEDVKRVIDAAKAIAIPMDR	not soluble
GRYEIRFSGAGGQGLILAGVIMAEAASIYDGKQAVQSQSYGPEARGGASKSEVIISDGPVDYPKATQCDALLALTQEACDKYSADLKEGGVLLVDSDLVTKLPPGNYQTTAFNIINTAKNDVGREIVANIVALGAMVALTGVVSKEAAEKAVLSRVPEAFVELNRKAFQMGFEKAL	not soluble
GSAGERIYNISGNGSPLADSKEIFLTVPVGGGESLRLLASDLQRHSIAQLDPEALGNIKKLSNRLAQICSSIRTHK	soluble
GSAPRVQEELCLVCGDRASGYHYNALTCEGCKGFFRRSVTKSAVYCCKFGRACEMDMYMRRKCQECRLKKCLAVGMRPECVVPENQCAMKRREKKAQKEKDKMTTSPSSQHGSPGIHRD	soluble
GSASDNAAYWSIATTMRSDNKALGAVSDALGMGAAKVDTASAGMDAAIKVVTDIKAKVVAAKEQGVDKTKVQEEVSQLLDQLKSIGTSASFNGENWLVSSANATKTVVSGFVRDAGGTVSVKTTDYALDANSMLYTEGTPGTIDANSGILNATGATTTVGAKTYTQISVLDMNVGTDDLDNALYSVETALTKMTSAGAKLGSLSARIDLQSGFADKLSDTIEKGVGRLV	not soluble
GSATASDSTRRVSVRDKLLVKEVAELEANLPCTCKVHFPDPNKLHCFQLTVTPDEGYYQGGKFQFETEVPDAYNMVPPKVKCLTKIWHPNITETGEICLSLLREHSIDGTGWAPTRTLKDVVWGLNSLFTDLLNFDDPLNIEAAEHHLRDKEDFRNKVDDYIKRYAR	soluble
GSDDINQKVAEQLAQKAQSSSLGYDIVESLTVEVGPRLAGSEQDKVAVDWAIAKLQSLGFDRVYKEPVTVPVWRRGIAKASILSPFPQPLVVTALGGSIATPAQGLSATIVRFDTLQDLQNAEAGSLNDKIAFIDAKTERHRDGKGYGQTASGRSRGAVAAAEKGAVGIIIRSIGTDHDRMAHTGMMRYEEGVTAIPAAAISNPDADLINAMLKRDKEVVISLELGSERRGETTSYNVIAEVKGSTKADEIVLIGAHLDSWDEGTGAIDDGAGVAIVTAAAKHILDLPQKPERTIRVVLYAAEELGLLGGKTYAKEHEAELEKHYIAAESDFGAGPIYQIDWRVADTAHSPVINAMKVAEPLGVAAGNNKASGGPDVSMLPALGVPVASLRQDGSDYFDYHHTPNDTLDKINPEALAQNVAVYAQFAWVMANSKVELRPLPPKE	soluble
GSGSEPAVCEMCGIVGTREAFFSKTKRFCSVSCSRSYSSNSKK	soluble
GSGSGSDIEAYLERIGYKKSRNKLDLETLTDILQHQIRAVPFENLNIHCGDAMDLGLEAIFDQVVRRNRGGWCLQVNHLLYWALTTIGFETTMLGGYVYSTPAKKYSTGMIHLLLQVTIDGRNYIVDAGSGRSYQMWQPLELISGKDQPQVPCVFRLTEENGFWYLDQIRREQYIPNEEFLHSDLLEDSKYRKIYSFTLKPRTIEDFESMNTYLQTSPSSVFTSKSFCSLQTPDGVHCLVGFTLTHRRFNYKDNTDLIEFKTLSEEEIEKVLKNIFNISLQRKLVPKHGDRFFTI	soluble
GSHGMSKSPEEEHPVKAFGWAARDQSGHLSPFNFSRRATGEEDVRFKVLYCGVCHSDLHSIKNDWGFSMYPLVPGHEIVGEVTEVGSKVKKVNVGDKVGVGCLVGACHSCESCANDLENYCPKMILTYASIYHDGTITYGGYSNHMVANERYIIRFPDNMPLDGGAPLLCAGITVYSPLKYFGLDEPGKHIGIVGLGGLGHVAVKFAKAFGSKVTVISTSPSKKEEALKNFGADSFLVSRDQEQMQAAAGTLDGIIDTVSAVHPLLPLFGLLKSHGKLILVGAPEKPLELPAFSLIAGRKIVAGSGIGGMKETQEMIDFAAKHNITADIEVISTDYLNTAMERLAKNDVRYRFVIDVGNTLAATKP	soluble
GSHMASDRKTEFILCVETFNEKAKKGIQMLIEKGFIDSDSNRDIASFLFLNNGRLNKKTIGLLLCDPKKTSLLKEFIDLFDFKGLRVDEAIRILLTKFRLPGESQQIERIVEAFSSKYSADQSNDKVELEDKKAGKNGSESMTEDDIIHVQPDADSVFVLSYSIIMLNTDSHNPQVKDHMTFDDYSNNLRGCYNGKDFPRWYLHKIYTSIKVKEIVMPEEH	soluble
GSHMECADVPLLTPSSKEMMSQALKATFSGFTKEQQRLGIPKDPRQWTETHVRDWVMWAVNEFSLKGVDFQKFCMSGAALCALGKECFLELAPDFVGDILWEHLEILQKEDVK	soluble
GSHMEEPSDLEELEQFAKTFKQRRIKLGFTQGDVGLAMGKLYGNDFSQTTISRFEALNLSFKNMAKLKPLLEKWLNDAENLSSDSSLSSPSALNSPGIEGLSERRKKRTSIETNIRVALEKSFLENQKPTSEEITMIADQLNMEKEVIRVWFCNRRQKEKRINPPSS	soluble

Sequence	soluble on expression in E. coli
GSHMGIKNDLEIRLQKLQQQGNFKNYLEQYPTDASTAAYFLIEIYNDGNIGGRSVIDAGTGNGILACGSYLLGAESVTAFDIDPDAIETAKRNCGGVNFMVADVSEISGKYDTWIMNPPFGSVVKHSDRAFIDKAFETSMWIYSIGNAKARDFLRREFSARGDVFREEKVYITVPRIYRHHSYDRARIEAVIFGVRNHSF	soluble
GSHMKISARNVFKGTVSALKEGAVNAEVDILLGGGDKLAAVVTLESARSLQLAAGKEVVAVVKAPWVLLMTDSSGYRLSARNILTGTVKTIETGAVNAEVTLALQGGTEITSMVTKEAVAELGLKPGASASAVIKASNVILGVPA	soluble
GSHMLKEVWEELDGLDPNRFNPKTFFILHDINSDGVLDEQELEALFTKELEKVYDPKNEEDDMREMEEERLRMREHVMKNVDTNQDRLVTLEEFLASTQRKEF	soluble
GSHMMGAKMAESLRLTCLACGQANKVPSDRLAAGPKCGICGAGLITGKVAGIDPAILARAERDDLPLLVDFWAPWCGPCRQMAPQFQAAAATLAGQVRLAKIDTQAHPAVAGRHRIQGIPAFILFHKGRELARAAGARPASELVGFVRGKLGARA	soluble
GSHMNGGRPPHHPYDAKDVSEYSCRELHYTRFLTDGPCRSAKPVTELVCSGQCGPARLLPNAIGRVKWWRPNGPDFRCIPDRYRAQRVQLLCPGGAAPRSRKVRLVASCKCKR	soluble
GSHMRKTLVLLGAHGVGRRHIKNTLITKHPDRFAYPIPHTTRPPKKDEENGKNYYFVSHDQMMQDISNNEYLEYGSHEDAMYGTKLETIRKIHEQGLIAILDVEPQALKVLRTAEFAPFVVFIAAPTITPGLNEDESLQRLQKESDILQRTYAHYFDLTIINNEIDETIRHLEEAVELVC	soluble
GSHMSDGLPNKKRKRRVLFTKAQTYELERRFRQQRYLSAPEREHLTSLIRLTPTQVKIWFQNHRYKTKRAQNEKGYEGHP	soluble
GSHMSPKIVDAGTATVPHTMSTMKTADNRPASVYLKKDKPTLIKFWASWCPLCLSELGQAEKWAQDAKFSSANLITVASPGFLHEKKDGEFQKWYAGLNYPKLPVVTDNGGTIAQNLNISVYPSWALIGKDGDVQRIVKGSINEAQALALIRNPNADLGSLKHS	soluble
GSHMSSGYPGVSWNKRMCAWLAFFYDGASRRSRTFHPKHFNMDKEKARLAAVEFMKTVENNGRKKLEPGGSQFIVTD	soluble
GSHMVEMRMKKCPKCGLYTLKEICPKCGEKTVIPKPPKFSLEDRWGKYRRMLKRALKNKNKAE	soluble
GSHSMRYFYTAMSRPGRGEPRFIAVGYVDDTQFVRFDSDAASPRTEPRPPWIEQEGPEYWDRNTQIFKTNTQTYRENLRIALRYYNQSEAGSHIIQRMYGCDLGPDGRLLRGHDQSAYDGKDYIALNEDLSSWTAADTAAQITQRKWEAARVAEQLRAYLEGLCVEWLRRYLENGKETLQRADPPKTHVTHHPVSDHEATLRCWALGFYPAEITLTWQRDGEDQTQDTELVETRPAGDRTFQKWAAVVVPSGEEQRYTCHVQHEGLPKPLTLRWEPHH	soluble
GSKAPPTFKVSLMDQSVREGQDVIMSIRVQGEPKPVVSWLRNRQPVRPDQRRFAEEAEGGLCRLRILAAERGDAGFYTCKAVNEYGARQCEARLEVRGE	soluble
GSKKKVKELKVLDSKTAQNLSIFLGSFRMPYQEIKNVILEVNEAVLTESMIQNLIKQMPEPEQLKMLSELKEEYDDLAESEQFGVVMGTVPRLRPRLNAILFKLQFSEQVENIKPEIVSVTAACEELRKSENFSSLLELTLLVGNYMNAGSRNAGAFGFNISFLCKLRDTKSADQKMTLLHFLAELCENDHPEVLKFPDELAHVEKASRVSAENLQKSLDQMKKQIADVERDVQNFPAATDEKDKFVEKMTSFVKDAQEQYNKLRMMHSNMETLYKELGDYFVFDPKKLSVEEFFMDLHNFRNMFLQAVKENQKRRETEEKMRRAKLAKEKAEKERLEKQ	soluble
GSMALPKDAIPSLSECQCGICMEILVEPVTLPCNHTLCKPCFQSTVEKASLCCPFCRRRVSSWTRYHTRRNSLVNVELWTIIQKHYPRECKLRASGQESEEVADDYQPVRLLSKP	soluble
GSMLGMIRNSLFGSVETWPWQVLSTGGKEDVSYEERACEGGKFATVEVTDKPVDEALREAMPKIMKYVGGTNDKGVGMGMTVPVSFAVFPNEDGSLQKKLKVWFRIPNQFQGSPPAPSDESVKIEEREGITVYSTQFGGYAKEADYVAHATQLRTTLEGTPATYQGDVYYCAGYDPPMKPYGRRNEVWLVKA	soluble
